The series concerns the molecule itself. Nature of the series: SEC. For orientation: Size exclusion chromatography separates by hydrodynamic size, large species first.

B1: PAN nucleotidase domain (residues 155-430) (domain or fragment, Methanocaldococcus jannaschii, UniProt Q58576 155-430, looked up)
chain: RAKAMEVDERPNVRYEDIGGLEKQMQEIREVVELPLKHPELFEKVGIEPPKGILLYGPPGTGKTLLAKAVATETNATFIRVVGSELVKKFIGEGASLVKDIFKLAKEKAPSIIFIDEIDAIAAKRTDALTGGDREVQRTLMQLLAEMDGFDARGDVKIIGATNRPDILDPAILRPGRFDRIIEVPAPDEKGRLEILKIHTRKMNLAEDVNLEEIAKMTEGCVGAELKAICTEAGMNAIRELRDYVTMDDFRKAVEKIMEKKKVKVKEPAHLDVLYR
On to B1, for which the “stoichiometry N” value stood at 6.

B2: PAN subcomplex I fragment (residues 74-150), coiled-coil OB-fold domain (domain or fragment, Methanocaldococcus jannaschii, UniProt Q58576 74-150, looked up)
chain: MKENEILRRELDRMRVPPLIVGTVVDKVGERKVVVKSSTGPSFLVNVSHFVNPDDLAPGKRVCLNQQTLTVVDVLPE
modifications: selenomethionine (in the crystals used for MAD phasing and refinement)
B2: the “stoichiometry N” value is 6.

One may read the stoichiometry N as a count of units in the complex or per binding partner.

The values above are taken from publication PMC3268689 (Molecular Cell, 2009).
